Source: the supplement of paper PMC9112550, “Optimization of the antimicrobial peptide Bac7 by deep mutational scanning” (BMC Biology, 2022)

Each sequence was assayed on Escherichia coli TOP10 (assay: shrunken log2 fold change of peptide-encoding DNA abundance (4.5 h post-induction vs induction); higher = less antimicrobial activity (less host growth inhibition)). Details: time post-induction: 4.5 h; library: site-saturation at positions 5, 18, 19, 20.
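Also: peptides expressed intracellularly from a pBAD plasmid library in pooled LB shake-flask culture, induced with 0.3% L-arabinose, DNA abundance read by NGS, three biological replicates, DESeq2 with apeglm shrinkage.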

Sequence | shrunken log2 fold change
RRIRVRPPRLPRPRPRPVYDPRP | -0.182
RRIRMRPPRLPRPRPRPPTKPRP | 0.508
RRIRKRPPRLPRPRPRPSNPPRP | -0.0952
RRIRHRPPRLPRPRPRPECHPRP | -0.303
RRIRWRPPRLPRPRPRPHRNPRP | -0.255
RRIRKRPPRLPRPRPRPHYLPRP | 0.0182
RRIRRRPPRLPRPRPRPKHNPRP | 0.396
RRIRHRPPRLPRPRPRPKQKPRP | -0.00654
RRIRNRPPRLPRPRPRPVPQPRP | 0.24
RRIRMRPPRLPRPRPRPQVNPRP | 0.166
RRIRQRPPRLPRPRPRPYSWPRP | 0.0415
RRIRKRPPRLPRPRPRPVVCPRP | 0.126
RRIRWRPPRLPRPRPRPYVIPRP | -0.0496
RRIRCRPPRLPRPRPRPHQPPRP | 0.0495
RRIRDRPPRLPRPRPRPWWPPRP | 0.0881
RRIRIRPPRLPRPRPRPSNEPRP | -0.945
RRIRWRPPRLPRPRPRPDFQPRP | 0.0985
RRIRDRPPRLPRPRPRPVSAPRP | 0.666
RRIRLRPPRLPRPRPRPHHRPRP | -0.263
RRIRHRPPRLPRPRPRPMRNPRP | 0.435
RRIRQRPPRLPRPRPRPNGFPRP | -0.258
RRIRRRPPRLPRPRPRPIHEPRP | 0.086
RRIRIRPPRLPRPRPRPTRTPRP | 0.22
RRIRFRPPRLPRPRPRPTNFPRP | -0.0824
RRIRARPPRLPRPRPRPWVYPRP | -0.0996

Sequence | shrunken log2 fold change
RRIRPRPPRLPRPRPRPASAPRP | 0.441
RRIRPRPPRLPRPRPRPWTDPRP | 0.0245
RRIRRRPPRLPRPRPRPMASPRP | -0.00822
RRIRFRPPRLPRPRPRPPPCPRP | 0.898
RRIRKRPPRLPRPRPRPTICPRP | -0.0104
RRIRMRPPRLPRPRPRPPRMPRP | 0.893
RRIRMRPPRLPRPRPRPVDQPRP | 0.0463
RRIRIRPPRLPRPRPRPCNFPRP | -0.061
RRIRRRPPRLPRPRPRPTHYPRP | 1.2
RRIRVRPPRLPRPRPRPIYNPRP | -0.675
RRIRSRPPRLPRPRPRPYDDPRP | 0.0208
RRIRARPPRLPRPRPRPTEWPRP | 0.483
RRIRARPPRLPRPRPRPLVFPRP | 0.397
RRIRWRPPRLPRPRPRPFCYPRP | -0.418
RRIRVRPPRLPRPRPRPQTKPRP | 0.0433
RRIRPRPPRLPRPRPRPGVMPRP | 0.0104
RRIRTRPPRLPRPRPRPEHEPRP | -0.109
RRIRPRPPRLPRPRPRPGLIPRP | -0.0104
RRIRTRPPRLPRPRPRPCVSPRP | -0.221
RRIRHRPPRLPRPRPRPTIQPRP | -0.169
RRIRIRPPRLPRPRPRPIHPPRP | -0.208
RRIRVRPPRLPRPRPRPAKFPRP | 0.42
RRIRQRPPRLPRPRPRPSGFPRP | -0.102
RRIRGRPPRLPRPRPRPGHSPRP | -0.0314
RRIRGRPPRLPRPRPRPHKMPRP | 0.0936

Sequence | shrunken log2 fold change
RRIRSRPPRLPRPRPRPQSPPRP | -0.0599
RRIRARPPRLPRPRPRPGFHPRP | 0.245
RRIRLRPPRLPRPRPRPGPNPRP | 0.0611
RRIRARPPRLPRPRPRPRTYPRP | -0.126
RRIRWRPPRLPRPRPRPLPIPRP | -0.0952
RRIRNRPPRLPRPRPRPFRIPRP | -0.0132
RRIRERPPRLPRPRPRPPNTPRP | -0.284
RRIRDRPPRLPRPRPRPGAKPRP | 0.592
RRIRDRPPRLPRPRPRPGNRPRP | -0.0278
RRIRKRPPRLPRPRPRPCAYPRP | -0.0475
RRIRFRPPRLPRPRPRPDIEPRP | 0.0974
RRIRLRPPRLPRPRPRPCYAPRP | -0.0464
RRIRERPPRLPRPRPRPDGDPRP | 0.03
RRIRIRPPRLPRPRPRPDSAPRP | -0.194
RRIRHRPPRLPRPRPRPYTMPRP | -0.393
RRIRVRPPRLPRPRPRPCYWPRP | -0.0621
RRIRTRPPRLPRPRPRPNAYPRP | -0.195
RRIRFRPPRLPRPRPRPNYMPRP | -0.254
RRIRPRPPRLPRPRPRPIDEPRP | -0.0401
RRIRERPPRLPRPRPRPKMIPRP | -0.399
RRIRSRPPRLPRPRPRPILEPRP | 0.0161
RRIRQRPPRLPRPRPRPRNHPRP | -0.137
RRIRMRPPRLPRPRPRPQKKPRP | -0.0151
RRIRHRPPRLPRPRPRPQYQPRP | -0.496
RRIRYRPPRLPRPRPRPNEEPRP | -0.0952
